{"source": "the supplement of paper PMC12042874", "note": "± gives the uncertainty stated by the source.", "data": [{"assay": "amyloid nucleation score (Sup35N fusion, yeast selection) (log enrichment); library NNK2; higher = more nucleation; inactive = no reads after selection", "outline": "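Peptides of 20 random codons, each fused to Sup35N, were expressed in psi-negative yeast. Cells were induced with 100 μM copper sulfate for 24 hours and grown 7 days at 30°C on medium lacking adenine and uracil, and plasmid inserts before and after selection were Illumina-sequenced. Nucleation scores are DiMSum log enrichments of output over input reads, centred on the mode score of non-aggregating sequences, and sequences under 100 input reads were excluded.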", "values": [{"substance": "SFTCLLSFKQSCHSFMPCPC", "amyloid nucleation score": "1.03 ± 0.32"}, {"substance": "SFTYASSV", "amyloid nucleation score": "-1.1 ± 0.28"}, {"substance": "SFVCWITVCNFRVSQ", "amyloid nucleation score": "3.21 ± 0.12"}, {"substance": "SFVLIKIMILLCDAVYGH", "amyloid nucleation score": "3.58 ± 0.054"}, {"substance": "SFVTYSNSLFFTISSDSK", "amyloid nucleation score": "6.826 ± 0.054"}, {"substance": "SFVWRWRRSEFHQVMRGGWP", "amyloid nucleation score": "2.15 ± 0.23"}, {"substance": "SFWISVGLWFWLGEYMGRNE", "amyloid nucleation score": "2.17 ± 0.12"}, {"substance": "SGCFVWPELVGESSIIMCPS", "amyloid nucleation score": "inactive"}, {"substance": "SGCTGFCRRGPVRCWGSCLL", "amyloid nucleation score": "inactive"}, {"substance": "SGCVA", "amyloid nucleation score": "0.474 ± 0.24"}, {"substance": "SGDFI", "amyloid nucleation score": "inactive"}, {"substance": "SGESSNCWLMIL", "amyloid nucleation score": "inactive"}, {"substance": "SGFFAVGILITTLPLRGNER", "amyloid nucleation score": "0.22 ± 0.45"}, {"substance": "SGFGCLFTMW", "amyloid nucleation score": "1.63 ± 0.27"}, {"substance": "SGFKLLGFTNYVHAVSMGSQ", "amyloid nucleation score": "3.25 ± 0.15"}, {"substance": "SGGLLKRWYRVDLGVVRYLY", "amyloid nucleation score": "inactive"}, {"substance": "SGIALFKPSCSVGVAQFDYE", "amyloid nucleation score": "-0.024 ± 0.45"}, {"substance": "SGILVKLVMIFSWKGGGV", "amyloid nucleation score": "2.96 ± 0.066"}, {"substance": "SGIWFQQDMMN", "amyloid nucleation score": "-0.258 ± 0.55"}, {"substance": "SGLEQRGMFRRKNLPIKWCL", "amyloid nucleation score": "3.89 ± 0.041"}, {"substance": "SGLLVSNKFWGICTNYFGQR", "amyloid nucleation score": "6.684 ± 0.045"}, {"substance": "SGNHSLVLYDWDYVWYVTQY", "amyloid nucleation score": "-1.1 ± 0.45"}, {"substance": "SGPWTSWLVSLG", "amyloid nucleation score": "-0.003 ± 1.1"}, {"substance": "SGRHVNVLYYNFNGPDDQFK", "amyloid nucleation score": "6.866 ± 0.029"}, {"substance": "SGRLL", "amyloid nucleation score": "1 ± 0.13"}, {"substance": "SGRTGIGWYLFCRPYPIVYA", "amyloid nucleation score": "0.277 ± 0.39"}, {"substance": "SGRYFRIRRPYEDCQGREVA", "amyloid nucleation score": "1.22 ± 0.38"}, {"substance": "SGSYF", "amyloid nucleation score": "-0.504 ± 0.45"}, {"substance": "SGTKPLCKQ", "amyloid nucleation score": "1.22 ± 0.34"}, {"substance": "SGTWMGAATY", "amyloid nucleation score": "3.62 ± 0.11"}, {"substance": "SGWWTKHRTMLKYYTLFAMG", "amyloid nucleation score": "-0.449 ± 0.44"}, {"substance": "SGYPRRIYWLVGKCLWYHRA", "amyloid nucleation score": "0.921 ± 0.48"}, {"substance": "SHGELEVAMPDTGNI", "amyloid nucleation score": "-0.378 ± 0.32"}, {"substance": "SHMHEEHIVEECTCSTPRRK", "amyloid nucleation score": "1.32 ± 0.44"}, {"substance": "SHNFRISYKSCVLNSCMKRL", "amyloid nucleation score": "inactive"}, {"substance": "SHNGHVLVPNRVVSITSCHR", "amyloid nucleation score": "0.147 ± 0.76"}, {"substance": "SHNVGYCSVSCSCTWWHSCV", "amyloid nucleation score": "inactive"}, {"substance": "SHTVGFSRAVRVCRGTDHT", "amyloid nucleation score": "0.72 ± 0.38"}, {"substance": "SHWLHGFSH", "amyloid nucleation score": "inactive"}, {"substance": "SIAHGQTSQNSTEWARVDG", "amyloid nucleation score": "0.387 ± 0.29"}, {"substance": "SIDYD", "amyloid nucleation score": "-0.627 ± 0.76"}, {"substance": "SIFPRTCSNSACLWISSRKL", "amyloid nucleation score": "4.259 ± 0.042"}, {"substance": "SIFYLEGDHDLTTCTDLNTF", "amyloid nucleation score": "3.13 ± 0.094"}, {"substance": "SIHDQLGHYVFIV", "amyloid nucleation score": "-1.16 ± 0.62"}, {"substance": "SIKGGSIEIEMYELESWVQL", "amyloid nucleation score": "-0.791 ± 1.1"}, {"substance": "SIQCMISWQDRDNVEACKVE", "amyloid nucleation score": "0.346 ± 0.21"}, {"substance": "SIRQTCKFGYIMAWL", "amyloid nucleation score": "7.064 ± 0.057"}, {"substance": "SIRSVILLCATLTSVGASLS", "amyloid nucleation score": "2.14 ± 0.14"}, {"substance": "SISHQRMWKGCADEII", "amyloid nucleation score": "-0.242 ± 1.1"}, {"substance": "SISTSTGLRRHPYNGPKIGM", "amyloid nucleation score": "-0.221 ± 0.32"}, {"substance": "SITMELVYLPYQFMKSRRSW", "amyloid nucleation score": "4.35 ± 0.067"}, {"substance": "SIWYLGGC", "amyloid nucleation score": "-0.02 ± 0.42"}, {"substance": "SIYSSGNALTYQRIHNWVGI", "amyloid nucleation score": "-0.953 ± 0.44"}, {"substance": "SKCIASFNLRSYCMSRLASS", "amyloid nucleation score": "-1.15 ± 1.1"}, {"substance": "SKGIDSEIHKRHRVRD", "amyloid nucleation score": "-0.206 ± 0.54"}, {"substance": "SKGRHVMGLGCEGNIWLKEL", "amyloid nucleation score": "-0.377 ± 0.34"}, {"substance": "SKGYCWNVICSRVSFTTYAL", "amyloid nucleation score": "6.77 ± 0.061"}, {"substance": "SKKELLNAVPVGMG", "amyloid nucleation score": "0.113 ± 0.63"}, {"substance": "SKLEENIPKLVTRYQCGTGR", "amyloid nucleation score": "0.143 ± 0.37"}, {"substance": "SKSVWMRLVS", "amyloid nucleation score": "-0.58 ± 0.24"}, {"substance": "SLCPRYYGF", "amyloid nucleation score": "inactive"}, {"substance": "SLDIDQTVRFTTK", "amyloid nucleation score": "5.618 ± 0.036"}, {"substance": "SLEKMWCRLFKGSQT", "amyloid nucleation score": "1.11 ± 0.12"}, {"substance": "SLFQCNGSCVIYSYGILLYL", "amyloid nucleation score": "7.71 ± 0.082"}, {"substance": "SLGNVELRQ", "amyloid nucleation score": "-0.679 ± 0.29"}, {"substance": "SLIKKFMLCFVYQREAHLLS", "amyloid nucleation score": "0.402 ± 0.8"}, {"substance": "SLLIYQMYE", "amyloid nucleation score": "-0.263 ± 0.76"}, {"substance": "SLLMNMS", "amyloid nucleation score": "0.269 ± 0.37"}, {"substance": "SLLRIRQYVVWRLG", "amyloid nucleation score": "0.079 ± 0.6"}, {"substance": "SLMWDGANLYCMMVYSSVRN", "amyloid nucleation score": "0.182 ± 1.1"}, {"substance": "SLNRTTSSLVRW", "amyloid nucleation score": "6.029 ± 0.037"}, {"substance": "SLPDRKIKWESGGP", "amyloid nucleation score": "0.646 ± 0.33"}, {"substance": "SLPGLGFLRLFFQ", "amyloid nucleation score": "0.089 ± 0.55"}, {"substance": "SLQFVGYYFPFNRVCARSGA", "amyloid nucleation score": "-0.913 ± 0.45"}, {"substance": "SLQGVM", "amyloid nucleation score": "-1.04 ± 0.44"}, {"substance": "SLSCSESGVKNRKVVELGWM", "amyloid nucleation score": "0.432 ± 0.32"}, {"substance": "SLSVSTAVIVITLTNGEFIG", "amyloid nucleation score": "2.64 ± 0.1"}, {"substance": "SLSYDWFASHLWTYDGW", "amyloid nucleation score": "-1.03 ± 0.34"}, {"substance": "SLTAVWDDLAMLKLWAEMEM", "amyloid nucleation score": "0.053 ± 1.1"}, {"substance": "SLTGSQSGQGDLCVLVRYNH", "amyloid nucleation score": "3.84 ± 0.12"}, {"substance": "SLTSSSICHRPHTCTVCV", "amyloid nucleation score": "-0.364 ± 0.33"}, {"substance": "SLVIYV", "amyloid nucleation score": "-1.42 ± 0.62"}, {"substance": "SLYFLTGWSFMMDQGVSTPC", "amyloid nucleation score": "6.934 ± 0.058"}, {"substance": "SLYLNKSSSSGRIQLYGLFT", "amyloid nucleation score": "0.049 ± 1.1"}, {"substance": "SLYVGFNRFFIRPVCCEVRG", "amyloid nucleation score": "-0.608 ± 1.1"}, {"substance": "SMAFREILLLMGSMLSCIRS", "amyloid nucleation score": "-0.956 ± 1"}]}]}
